The values that follow come from patent US20210155689A1 (SHANGHAI PHARMAEXPLORER, published 2021).

Assay [1] deals with human LAG-3 on cells (HEK293-hLAG-3 stable cell line) (human) (UniProt P18627). In words: cell-based or functional assay.
The target is the same in assay [2]. Kind of assay: FACS, HEK293-hLAG-3, antibody 200.000 nM.
Assay [3] has the same target. Kind of assay: FACS, HEK293-hLAG-3, antibody 0.064 nM.
The target of assay [4] is monkey LAG-3 on cells (HEK293-cLAG-3 stable cell line) (monkey). In words: FACS, HEK293-cLAG-3, antibody 40.000 nM. A general note: A flow cytometer gives signals particle by particle.
Chain of monkey LAG-3 on cells (HEK293-cLAG-3 stable cell line) (monkey) (P18627 other isoform, or with tags, fused parts or gaps limits assumed): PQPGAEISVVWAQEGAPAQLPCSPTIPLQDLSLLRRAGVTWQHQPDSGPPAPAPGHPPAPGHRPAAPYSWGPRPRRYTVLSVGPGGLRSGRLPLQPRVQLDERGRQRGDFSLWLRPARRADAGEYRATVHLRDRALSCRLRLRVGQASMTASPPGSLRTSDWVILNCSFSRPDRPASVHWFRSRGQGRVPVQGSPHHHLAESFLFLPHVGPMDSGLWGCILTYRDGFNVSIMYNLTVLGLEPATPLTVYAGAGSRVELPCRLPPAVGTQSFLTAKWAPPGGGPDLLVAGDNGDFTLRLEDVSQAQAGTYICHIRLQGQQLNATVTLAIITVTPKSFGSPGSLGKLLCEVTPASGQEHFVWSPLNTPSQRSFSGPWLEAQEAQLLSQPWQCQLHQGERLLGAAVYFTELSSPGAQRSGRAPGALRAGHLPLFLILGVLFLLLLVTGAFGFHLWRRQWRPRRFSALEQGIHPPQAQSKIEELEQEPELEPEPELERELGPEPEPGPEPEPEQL
For assay [5], the target named is LAG-3-hFc protein (human LAG-3 extracellular region with hFc tag) (human) (UniProt P18627). Kind of assay: ELISA, inhibition of LSECtin-His binding to coated LAG-3-hFc, antibody 1.600 nM, replicate 1. (In general: An ELISA detects its analyte on a solid surface through an enzyme-linked reagent.)
The target is the same in assay [6]. In words: FACS, inhibition of LAG-3-hFc binding to MHC II on Raji cells, antibody 7.407 nM.
For assay [7] the target is unchanged. In words: FACS, inhibition of LAG-3-hFc binding to MHC II on Raji cells, antibody 22.222 nM.
Assay [8] addresses human LAG-3 on cells (HEK293-hLAG-3 stable cell line) (human) (UniProt P18627). In words: FACS, HEK293-hLAG-3, antibody 0.013 nM.
The target of assay [9] is LAG-3-hFc protein (human LAG-3 extracellular region with hFc tag) (human) (UniProt P18627). Kind of assay: ELISA, inhibition of LSECtin-His binding to coated LAG-3-hFc, antibody 40.000 nM, replicate 2.
For assay [10] the target is unchanged. In words: ELISA, inhibition of LSECtin-His binding to coated LAG-3-hFc, antibody 0.013 nM, replicate 1.
Assay [11] shares this target. In words: FACS, inhibition of LAG-3-hFc binding to MHC II on Raji cells, antibody 66.667 nM.
Assay [12] shares this target. In words: ELISA, inhibition of LSECtin-His binding to coated LAG-3-hFc, antibody 0.000 nM, replicate 1.
For assay [13] the target is unchanged. In words: FACS, inhibition of LAG-3-hFc binding to MHC II on Raji cells, antibody 2.469 nM.
For assay [14], the target named is human LAG-3 on cells (HEK293-hLAG-3 stable cell line) (human) (UniProt P18627). Kind of assay: FACS, HEK293-hLAG-3, antibody 0.013 nM. This is another data set of the same source.
Assay [15] shares this target. In words: FACS, HEK293-hLAG-3, antibody 0.32 nM.
Assay [16] has as its target T1, human LAG-3 on cells (HEK293-hLAG-3 stable cell line) (human, UniProt P18627 23-525).
T1 sequence: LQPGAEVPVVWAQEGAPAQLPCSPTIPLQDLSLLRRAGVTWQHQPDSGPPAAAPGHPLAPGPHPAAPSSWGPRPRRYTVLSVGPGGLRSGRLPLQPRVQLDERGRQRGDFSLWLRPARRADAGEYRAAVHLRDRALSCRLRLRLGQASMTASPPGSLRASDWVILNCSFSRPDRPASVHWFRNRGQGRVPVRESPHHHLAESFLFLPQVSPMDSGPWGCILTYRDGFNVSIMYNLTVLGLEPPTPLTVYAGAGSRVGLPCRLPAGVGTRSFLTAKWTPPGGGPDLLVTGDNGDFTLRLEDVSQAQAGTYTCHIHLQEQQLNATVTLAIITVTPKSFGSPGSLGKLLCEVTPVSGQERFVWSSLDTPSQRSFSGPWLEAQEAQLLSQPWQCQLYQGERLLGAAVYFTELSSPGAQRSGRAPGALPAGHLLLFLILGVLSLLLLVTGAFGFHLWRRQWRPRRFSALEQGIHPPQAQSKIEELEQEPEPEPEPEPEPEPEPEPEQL
In words: FACS, HEK293-hLAG-3, antibody 0.064 nM. The source says:
(§1) A. The binding of antibodies to LAG-3 expressing cells was detected by Flow cytometry (FACS), wherein the method was according to that of Example 5.

Assay [17] concerns the target T1, human LAG-3 on cells (HEK293-hLAG-3 …). In words: FACS, HEK293-hLAG-3, antibody 8 nM.
From the text: as §1

The target is the same in assay [18]. In words: FACS, HEK293-hLAG-3, antibody 40 nM.
Assay [19] shares this target. Kind of assay: FACS, HEK293-hLAG-3, antibody 1.6 nM.
Assay [20] has the same target. Kind of assay: FACS, HEK293-hLAG-3, antibody 8 nM. The source holds these as a separate data set.

In the case of hIgG control (antibody), in assay [1], the IL-2 production, SEB-dependent PBMC stimulation test, 0.0032 ug/ml, N = 1 was found to be 1620 pg/mL; the IL-2 production, SEB-dependent PBMC stimulation test, 0.0032 ug/ml, N = 2 amounted to 1590 pg/mL; the IL-2 production, SEB-dependent PBMC stimulation test, 0.016 ug/ml, N = 1 turned out to be 1220 pg/mL; the IL-2 production, SEB-dependent PBMC stimulation test, 0.016 ug/ml, N = 2 is 1660 pg/mL. Further, in assay [1], the IL-2 production, SEB-dependent PBMC stimulation test, 0.08 ug/ml, N = 1 was 1020 pg/mL; the IL-2 production, SEB-dependent PBMC stimulation test, 0.08 ug/ml, N = 2 was found to be 1650 pg/mL; the IL-2 production, SEB-dependent PBMC stimulation test, 0.4 ug/ml, N = 1 was found to be 1060 pg/mL; the IL-2 production, SEB-dependent PBMC stimulation test, 0.4 ug/ml, N = 2 worked out at 1680 pg/mL. Also, in [1], the IL-2 production, SEB-dependent PBMC stimulation test, 2 ug/ml, N = 1 was determined as 1130 pg/mL; the IL-2 production, SEB-dependent PBMC stimulation test, 2 ug/ml, N = 2 is 1630 pg/mL; the IL-2 production, SEB-dependent PBMC stimulation test, 10 ug/ml, N = 1 turned out to be 1280 pg/mL; the IL-2 production, SEB-dependent PBMC stimulation test, 10 ug/ml, N = 2 was 1490 pg/mL. Moreover, in assay [1], the IL-2 production, antigen-specific T lymphocyte stimulation test, 0.016 ug/ml, N = 1 worked out at 336 pg/mL; the IL-2 production, antigen-specific T lymphocyte stimulation test, 0.016 ug/ml, N = 2 was 298 pg/mL; the IL-2 production, antigen-specific T lymphocyte stimulation test, 0.08 ug/ml, N = 1 is 286 pg/mL; the IL-2 production, antigen-specific T lymphocyte stimulation test, 0.08 ug/ml, N = 2 amounted to 282 pg/mL. In [1], this molecule returned an IL-2 production, antigen-specific T lymphocyte stimulation test, 0.4 ug/ml, N = 1 of 322 pg/mL; an IL-2 production, antigen-specific T lymphocyte stimulation test, 0.4 ug/ml, N = 2 of 286 pg/mL; an IL-2 production, antigen-specific T lymphocyte stimulation test, 2 ug/ml, N = 1 of 382 pg/mL; an IL-2 production, antigen-specific T lymphocyte stimulation test, 2 ug/ml, N = 2 of 317 pg/mL. In assay [1], this molecule returned an IL-2 production, antigen-specific T lymphocyte stimulation test, 10 ug/ml, N = 1 of 338 pg/mL and an IL-2 production, antigen-specific T lymphocyte stimulation test, 10 ug/ml, N = 2 of 277 pg/mL. Further, in assay [2], the Mean fluorescence intensity is 3.1. The same molecule showed a Mean fluorescence intensity in assay [3] of 3.1. The molecule also registered a Mean fluorescence intensity in [4] of 2.88. Further, the Inhibition rate (%) in [5] is -21.6%. In addition, the Inhibition rate (%) in assay [6] came to 8.8%. Moreover, the Inhibition rate (%) in assay [7] stood at 19.7%. Also, the Mean fluorescence intensity in [8] was found to be 3. The Inhibition rate (%) in assay [9] is -3.5%. Moreover, in assay [10], the Inhibition rate (%) is -12.9%. In assay [11], the Inhibition rate (%) is 12.1%. Moreover, the Inhibition rate (%) in assay [12] was determined as 3.1%. In [13], the Inhibition rate (%) is 2.1%. For the same molecule, the Mean fluorescence intensity in assay [14] turned out to be 4. Further, the Mean fluorescence intensity in [15] came out at 4.

B1: 405B8H3 mouse-human chimeric antibody (antibody, V domains shown)
VH: QVQLQQSGAELVRPGASVTLSCKASGYTFTDYEMHWVKQTPVHGLEWIGATDPETGNSAYNQKFKGKAIMTADKSSSTAYMELRSLTSEDSAVYYCISTGWNDWGQGTSLTVSS
VL: DIKMTQSPSSMYASLGERVTITCKASQDINSYLSWFQQKPGKSPKTLIYRADRLLDGVPSRFSGSGSGQDYSLTISSLEYGDMGIYYCLQYDEFPYTFGGGTKLEIK
notes: also called mAb103-405B8H3
For B1, the Mean fluorescence intensity in assay [16] is 19; in assay [17] it was 226.

B2: 556F6B8 mouse-human chimeric antibody (antibody, V domains shown)
VH: RVQLKQSGPGLVQPSQSLSITCTVSGFSLIKYGVHWVRQSPGEGLEWLGVIWRGGITDYNAAFMSRLSITKDNSKSQVFFKMNSLQADDTAIYYCAKWDGPLAMDYWGQGTSVTVSS
VL: DIVMTQSHKFLSTSVGDRVSITCKASQDVGTTVAWYQQKPGQSPKLLIYWASTRHTGVPDRFTGSGSGTDFTLTISNVQSEDLADYFCQQYSSYPYTFGGGTKLEIK
notes: also called mAb123-556F6B8; 556F8B8
As to B2, the values for the Mean fluorescence intensity in assay [18], in assay [19] and in assay [20] were 96, 67 and 90, respectively.
